Measured values taken from patent US9193755B1, “TFEB variants and uses thereof” (Fondazione Telethon, priority 2011, dated 2015).

Columns and labels:
[1] = test system: TFEB target genes; experiment: qPCR of TFEB target genes after transfection with normal and mutant TFEB plasmids; type: cell-based, human; settings: 24 h post-transfection, compared to TFEB(WT), TFEB(S332A) and TFEB(S402A)
From the text: (§1) Asterisks in the graph indicate that the P-value was <0.05.

[2] = test system: HeLa cells; experiment: Autophagosome number / LC3II level in HeLa cells; type: cell-based, human
From the text: Cells or tissues were solubilized in RIPA buffer supplemented with protease (ROCHE) and Phosphatase (SIGMA) inhibitors. From 10 to 30 micrograms were loaded on 4-12% Bis-Tris gel (NUPAGE, Invitrogen), transferred to PVDF membranes and analyzed by western blot using the ECL method (Pierce). The following antibodies were used: LC3 (Novus Biological), FLAG, b-ACTIN, TUBULIN (SIGMA), HA (Covance), H3, ERK1/2, p-ERK1/2, p-AKT, p-70S6K (Cell Signaling), ERK2 (Santa Cruz). Protein levels were quantified by using ImageJ software analysis.

[3] = test system: HeLa cells; experiment: Subcellular localization and mobility of mutated TFEB-3xFlag in HeLa cells; type: cell-based, human; settings: for TFEB subcellular localization of serine-to-alanine mutants: HeLa cells, Flag immunostaining
Method: Cells were transiently transfected with DNA plasmids pRK5-mycPAT1, pCEP4-TFEB-his, pC1G2-TFEB, and p3 x FLAG-CMVTFEB using lipofectamine2000 or LTX (Invitrogen) according to the protocol from manufacturer. Site-direct mutagenesis was performed according to the manufacturer instructions (Stratagene) verifying the correct mutagenesis by sequencing.
Cells were seeded at 50% of confluence in 6 well dishes and serum starved overnight (ON). Normal medium was added the following day either in presence of DMSO or kinase inhibitors. Subcellular fractionation was carried out as previously reported. Briefly, cells were lysed in 0.5 Triton X-100 lysis buffer (50 mM Tris-HCl, 0.5% triton, 137.5 mM NaCl, 10% glycerol, 5 mM EDTA supplemented with fresh protease and phosphatase inhibitors. Supernatant represented cytosolic fraction while nuclear pellet was washed twice and lysed in 0.5 Triton X-100 buffer 0.5% SDS and sonicated.

[4] = test system: MEFs, NSCs, HeLa, and COS-7 cells; experiment: Release of lysosomal enzymes in the culture medium; type: cell-based; settings: TFEB overexpression; acid phosphatase, beta-galactosidase, beta-hexosaminidase
Method: Lysosomal enzymes acid phosphatase, beta-galactosidase, and beta-hexosaminidaseactivities were measured using the appropriate fluorimetric or colorimetric substrates. SGSH activity was measured following protocols described in Fraldi et al., Hum Mol Gen 2007 (33).

[5] = test system: HeLa cells stably expressing GFP-mRFP-LC3; experiment: RFP-GFP tandem tagged LC3 autophagosome-lysosome fusion assay; type: cell-based, human; settings: TFEB overexpressing cells compared to control cells
[6] = test system: LSDs; settings: TFEB overexpression (45); cited from earlier work
[7] = test system: mouse embryonic fibroblast (MEFs); experiment: Electron microscopy of MEFs infected with lentivirus overexpressing TFEB; type: cell-based
Method: Control and TFEB-overexpressing cells were washed with PBS, and fixed in 1% glutaraldehyde dissolved in 0.2 M Hepes buffer (pH 7.4) for 30 min at room temperature. The cells were then postfixed for 2 h in OsO4. After dehydration in graded series of ethanol, the cells were embedded in Epon 812 (Fluka) and polymerized at 60° C. for 72 h. Thin sections were cut at the Leica EM UC6, counterstained with uranyl acetate and lead citrate. EM images were acquired from thin sections using a Philips Tecnai-12 electron microscope equipped with an ULTRA VIEW CCD digital camera (Philips, Eindhoven, The Netherlands). Quantification of vacuolization was performed using the AnalySIS software (Soft Imaging Systems GmbH, Munster, Germany). Selection of cells for quantification was based on their suitability for stereologic analysis, i.e. only cells sectioned through their central region (detected on the basis of the presence of Golgi membranes) were analyzed.

[8] = test system: autophagy-related genes in HeLa cells; experiment: qPCR of autophagy-related genes in TFEB stable overexpressing HeLa cells; type: cell-based, human; settings: TFEB stable overexpression
From the text: as §1

[9] = test system: long-lived proteins; experiment: Degradation of long-lived proteins; type: cell-based; settings: TFEB overexpression
Method: Sub-confluent cells were incubated with L-U^14C-serine for 20 h and chased for 1 h with cold media to degrade short-lived proteins. Subsequently cells were incubated with either normal media or starvation media (eventually in the presence of 3-MA) for 4 h. The rate of long-lived protein degradation was calculated from the ratio of soluble radioactivity in the media to that insoluble in the acid-precipitable cell pellet.

B1: TFEB(S142A): TFEB variant with serine 142 mutated to alanine (protein, UniProt P19484 1-476, looked up, variant S142A)
Transcription factor EB: MASRIGLRMQLMREQAQQEEQRERMQQQAVMHYMQQQQQQQQQQLGGPPTPAINTPVHFQSPPPVPGEVLKVQSYLENPTSYHLQQSQHQKVREYLSETYGNKFAAHISPAQGSPKPPPAASPGVRAGHVLSSSAGNSAPNAPMAMLHIGSNPERELDDVIDNIMRLDDVLGYINPEMQMPNTLPLSSSHLNVYSSDPQVTASLVGVTSSSCPADLTQKRELTDAESRALAKERQKKDNHNLIERRRRFNINDRIKELGMLIPKANDLDVRWNKGTILKASVDYIRRMQKDLQKSRELENHSRRLEMTNKQLWLRIQELEMQARVHGLPTTSPSGMNMAELAQQVVKQELPSEEGPGEALMLGAEVPDPEPLPALPPQAPLPLPTQPPSPFHHLDFSHSLSFGGREDEGPPGYPEPLAPGHGSPFPSLSKKDLDLMLLDDSLLPLASDPLLSTMSPEASKASSRRSSFSMEEGDVL
modifications: 3xFlag tag
notes: TFEB variant with serine 142 mutated to alanine
expression levels of TFEB target genes [1]: increased expression levels | induction of the autophagic/lysosomal system (autophagosomes, lysosomes, autophagolysosomes) ([2]; compared to wt TFEB): stronger induction | TFEB subcellular localization of serine-to-alanine mutants [3]: constitutive nuclear localization | nuclear localization of mutant TFEB ([3]; compared to TFEB(WT), TFEB(S332A) and TFEB(S402A)): significantly increased nuclear localization

B2: S211A: TFEB with serine-to-alanine mutation at position 211 (protein, UniProt P19484 1-476, looked up, variant S211A)
Transcription factor EB: MASRIGLRMQLMREQAQQEEQRERMQQQAVMHYMQQQQQQQQQQLGGPPTPAINTPVHFQSPPPVPGEVLKVQSYLENPTSYHLQQSQHQKVREYLSETYGNKFAAHISPAQGSPKPPPAASPGVRAGHVLSSSAGNSAPNSPMAMLHIGSNPERELDDVIDNIMRLDDVLGYINPEMQMPNTLPLSSSHLNVYSSDPQVTASLVGVTSSACPADLTQKRELTDAESRALAKERQKKDNHNLIERRRRFNINDRIKELGMLIPKANDLDVRWNKGTILKASVDYIRRMQKDLQKSRELENHSRRLEMTNKQLWLRIQELEMQARVHGLPTTSPSGMNMAELAQQVVKQELPSEEGPGEALMLGAEVPDPEPLPALPPQAPLPLPTQPPSPFHHLDFSHSLSFGGREDEGPPGYPEPLAPGHGSPFPSLSKKDLDLMLLDDSLLPLASDPLLSTMSPEASKASSRRSSFSMEEGDVL
TFEB subcellular localization of serine-to-alanine mutants [3]: constitutive nuclear localization

B3: TFEB: transcription factor EB, Seq. Id No. 2, overexpressed from plasmid, lentivirus or stable clone (protein, listed as Homo sapiens)
chain: MASRIGLRMQLMREQAQQEEQRERMQQQAVMHYMQQQQQQQQQQLGGPPTPAINTPVHFQSPPPVPGEVLKVQSYLENPTSYHLQQSQHQKVREYLSETYGNKFAAHISPAQGSPKPPPAASPGVRAGHVLSSSAGNSAPNSPMAMLHIGSNPERELDDVIDNIMRLDDVLGYINPEMQMPNTLPLSSSHLNVYSSDPQVTASLVGVTSSSCPADLTQKRELTDAESRALAKERQKKDNHNLIERRRRFNINDRIKELGMLIPKANDLDVRWNKGTILKASVDYIRRMQKDLQKSRELENHSRRLEMTNKQLWLRIQELEMQARVHGLPTTSPSGMNMAELAQQVVKQELPSEEGPGEALMLGAEVPDPEPLPALPPQAPLPLPTQPPSPFHHLDFSHSLSFGGREDEGPPGYPEPLAPGHGSPFPSLSKKDLDLMLLDDSLLPLASDPLLSTMSPEASKASSRRSSFSMEEGDVL
release of lysosomal enzymes in the culture medium [4]: increases the release of lysosomal enzymes | number of autophagolysosomes [5]: higher | number of autophagosomes (LC3 marker) ([2]; stable TFEB overexpression in HeLa cells): increased significantly | substrate clearance and cellular vacuolization in LSDs [6]: able to promote substrate clearance and to rescue cellular vacuolization | number of autophagosomes by electron microscopy [7]: An increase in the number of autophagosomes | AKT1 FOLD INCREASE [8]: 1.2 fold | AMBRA1 FOLD INCREASE [8]: 1.2 fold | APP FOLD INCREASE [8]: 1.4 fold | ARSA FOLD INCREASE [8]: 1.3 fold | ATG3 FOLD INCREASE [8]: 1.2 fold | ATG4A FOLD INCREASE [8]: 1.2 fold | ATG4B FOLD INCREASE [8]: 1.3 fold | ATG4C FOLD INCREASE [8]: 1.1 fold | ATG4D FOLD INCREASE [8]: 1.6 fold | ATG5 FOLD INCREASE [8]: 1.2 fold | ATG7 FOLD INCREASE [8]: 1.2 fold | ATG9A FOLD INCREASE [8]: 1.1 fold | ATG9B FOLD INCREASE [8]: 5.6 fold | ATG10 FOLD INCREASE [8]: 1.1 fold | ATG12 FOLD INCREASE [8]: 1.2 fold | ATG16L1 FOLD INCREASE [8]: −1.2 fold | ATG16L2 FOLD INCREASE [8]: 1.1 fold | BAD FOLD INCREASE [8]: 1.0 fold | BAK1 FOLD INCREASE [8]: 1.4 fold | BAX FOLD INCREASE [8]: 1.2 fold | BCL2 FOLD INCREASE [8]: 1.5 fold | BECN1 FOLD INCREASE [8]: 1.2 fold | BID FOLD INCREASE [8]: 1.2 fold | BNIP3 FOLD INCREASE [8]: 1.1 fold | CLN3 FOLD INCREASE [8]: 1.5 fold | CXCR4 FOLD INCREASE [8]: 1.3 fold | DRAM FOLD INCREASE [8]: 1.8 fold | EIF2AK3 FOLD INCREASE [8]: 1.4 fold | EIF4G1 FOLD INCREASE [8]: 1.3 fold | FAM176A FOLD INCREASE [8]: 1.6 fold | GAA FOLD INCREASE [8]: 1.3 fold | GABARAP FOLD INCREASE [8]: 1.1 fold | GABARAPL1 FOLD INCREASE [8]: 1.0 fold | GABARAPL2 FOLD INCREASE [8]: 1.1 fold | HGS FOLD INCREASE [8]: −1.1 fold | HTT FOLD INCREASE [8]: 1.0 fold | MAP1LC3A FOLD INCREASE [8]: 1.1 fold | MAP1LC3B FOLD INCREASE [8]: 1.2 fold | PIK3C3 FOLD INCREASE [8]: −1.2 fold | PIK3R4 FOLD INCREASE [8]: 1.1 fold | PTEN FOLD INCREASE [8]: 1.1 fold | RAB24 FOLD INCREASE [8]: 1.2 fold | RGS19 FOLD INCREASE [8]: 1.2 fold | SNCA FOLD INCREASE [8]: 1.6 fold | SQSTM1 FOLD INCREASE [8]: 2.4 fold | TP53 FOLD INCREASE [8]: 1.1 fold | ULK1 FOLD INCREASE [8]: 1.1 fold | UVRAG FOLD INCREASE [8]: 1.8 fold | VPS11 FOLD INCREASE [8]: 1.4 fold | VPS18 FOLD INCREASE [8]: 1.4 fold | WIPI FOLD INCREASE [8]: 2.5 fold | degradation of long-lived proteins [9]: enhanced

B4: TFEB S142D: phospho-mimetic mutant of TFEB (protein, UniProt P19484 1-476, looked up, variant S142D)
Transcription factor EB: MASRIGLRMQLMREQAQQEEQRERMQQQAVMHYMQQQQQQQQQQLGGPPTPAINTPVHFQSPPPVPGEVLKVQSYLENPTSYHLQQSQHQKVREYLSETYGNKFAAHISPAQGSPKPPPAASPGVRAGHVLSSSAGNSAPNDPMAMLHIGSNPERELDDVIDNIMRLDDVLGYINPEMQMPNTLPLSSSHLNVYSSDPQVTASLVGVTSSSCPADLTQKRELTDAESRALAKERQKKDNHNLIERRRRFNINDRIKELGMLIPKANDLDVRWNKGTILKASVDYIRRMQKDLQKSRELENHSRRLEMTNKQLWLRIQELEMQARVHGLPTTSPSGMNMAELAQQVVKQELPSEEGPGEALMLGAEVPDPEPLPALPPQAPLPLPTQPPSPFHHLDFSHSLSFGGREDEGPPGYPEPLAPGHGSPFPSLSKKDLDLMLLDDSLLPLASDPLLSTMSPEASKASSRRSSFSMEEGDVL
modifications: 3xFlag tag
translocation into the nucleus upon nutrient starvation ([3]; nutrient starvation): unable to translocate into the nucleus
